The text below walks through data of patent publication US20170166621A1.

The assay concerns the target GLP-1 receptor (UniProt P43220). Kind of assay: cell-based or functional assay.

Chain of GLP-1 receptor (P43220 24-463 limits assumed): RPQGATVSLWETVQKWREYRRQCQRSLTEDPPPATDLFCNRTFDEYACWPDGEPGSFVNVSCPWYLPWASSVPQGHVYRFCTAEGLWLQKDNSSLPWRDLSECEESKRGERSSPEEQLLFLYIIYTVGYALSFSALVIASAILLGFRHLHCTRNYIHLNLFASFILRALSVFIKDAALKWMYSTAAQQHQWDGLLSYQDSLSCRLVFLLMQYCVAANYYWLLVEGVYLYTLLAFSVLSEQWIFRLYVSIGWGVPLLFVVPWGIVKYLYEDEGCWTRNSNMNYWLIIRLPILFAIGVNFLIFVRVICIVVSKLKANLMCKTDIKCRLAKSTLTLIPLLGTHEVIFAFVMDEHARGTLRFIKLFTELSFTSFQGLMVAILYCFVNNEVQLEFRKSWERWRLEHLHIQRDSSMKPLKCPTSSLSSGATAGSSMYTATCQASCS

The substance Exendin-4 (peptide) registered a cAMP EC50 (fold-Ex-4); GLP-1R only cells of 1 fold, a cAMP EC50 (fold-Ex-4); GLP-1R/FGFR1c/beta-klotho cells of 1 fold, a cAMP EC50 (nM); GLP-1R only cells of 11 nM and a cAMP EC50 (nM); GLP-1R/FGFR1c/beta-klotho cells of 6 nM. The substance also registered a cAMP y-max (% Ex-4); GLP-1R only cells of 100% and a cAMP y-max (% Ex-4); GLP-1R/FGFR1c/beta-klotho cells of 100%.
